Test results taken from US20260085097A1 (TEXAS A AND M UNIVERSITY SYSTEM, published 2026).
Read-outs that look alike come from different tables or passages of the source.

Key:
[1] = target: Shiga toxin 2a (Stx2a) holotoxin (Escherichia coli (Shiga …, UniProt P09385 23-319; P09386 20-89); test: cell-based or functional assay
Target sequence in this assay (P09385 23-319, chain 1 of 2): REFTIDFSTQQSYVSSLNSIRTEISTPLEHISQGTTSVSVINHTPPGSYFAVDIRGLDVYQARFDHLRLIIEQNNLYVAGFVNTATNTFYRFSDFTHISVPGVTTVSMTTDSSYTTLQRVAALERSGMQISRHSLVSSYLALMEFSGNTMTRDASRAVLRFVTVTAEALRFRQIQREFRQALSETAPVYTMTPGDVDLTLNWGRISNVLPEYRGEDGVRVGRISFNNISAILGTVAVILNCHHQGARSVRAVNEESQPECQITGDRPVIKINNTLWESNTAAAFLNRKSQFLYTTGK
Target sequence in this assay (P09386 20-89, tags left off, chain 2 of 2): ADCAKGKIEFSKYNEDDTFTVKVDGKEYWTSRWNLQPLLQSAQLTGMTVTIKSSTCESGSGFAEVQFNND

[2] = target: T1, Stx2a-A1 fragment with a C-terminus 6xHis tag (Escherichia coli (Shiga …, UniProt P09385 23-272)); test: ELISA at pH 7.4, plate coated with 4 ug/mL Stx2a-A1
T1 sequence (P09385 23-272, tags left off): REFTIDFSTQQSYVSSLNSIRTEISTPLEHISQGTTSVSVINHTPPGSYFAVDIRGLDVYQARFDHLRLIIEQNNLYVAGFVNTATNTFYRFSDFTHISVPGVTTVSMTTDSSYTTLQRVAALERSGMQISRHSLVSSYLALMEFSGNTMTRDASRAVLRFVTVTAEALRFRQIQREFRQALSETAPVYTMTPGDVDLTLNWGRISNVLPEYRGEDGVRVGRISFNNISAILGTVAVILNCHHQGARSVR

[3] = target: T1, Stx2a-A1 fragment with a C-terminus …; test: ELISA at pH 6.0, plate coated with 4 ug/mL Stx2a-A1
[4] = target: T2, Shiga toxin 2a (Stx2a) holotoxin (Escherichia coli (Shiga …, UniProt P09385 23-319; P09386 20-89); test: cell-based or functional assay; remark: listed apart in the source
T2 sequence (P09385 23-319 limits assumed, one chain of several): as the sequence (P09385 23-319, chain 1 of 2) above

[5] = target: T2, Shiga toxin 2a (Stx2a) holotoxin; test: BLI (BLItz), biotinylated Stx2a holotoxin on streptavidin sensor, apparent KD
[6] = target: T2, Shiga toxin 2a (Stx2a) holotoxin
[7] = target: T2, Shiga toxin 2a (Stx2a) holotoxin; test: screen of E. coli lysates for Stx2a binding after off-rate selection
[8] = target: T2, Shiga toxin 2a (Stx2a) holotoxin; test: ELISA, plate coated with full-length Stx2a
[9] = target: T2, Shiga toxin 2a (Stx2a) holotoxin; remark: listed apart in the source
[10] = target: T2, Shiga toxin 2a (Stx2a) holotoxin; remark: listed apart in the source
[11] = target: T2, Shiga toxin 2a (Stx2a) holotoxin; test: BLI (BLItz), biotinylated Stx2a holotoxin on streptavidin sensor
[12] = target: T2, Shiga toxin 2a (Stx2a) holotoxin; remark: listed apart in the source

B1: DARPin #16 (designed binder)
chain: DLGKKLLEAARAGQDDEVRILMANGADVNAADPAGWTPLHLAACYGHLEIVGVLLKNGADVNALDWGGWTPLHLAAVIGHLEIVGVLLKHGADVNATDLSGWTPLHLAAFRGHLEIVEVLLKHGADVNAQDKFGKTAFDISIDNGNEDLAEILQSSS
Q: B1 was tested. Which “EC50 of Stx2a neutralization, Vero E6 toxin challenge assay (cell viability)” value [1] did it give?
A: > 1000 nM

B2: DARPin HT (designed binder)
chain: MGSSHHHHHHSSGLVPRGSHMEQKLISEEDLGSDLGKKLLEAARAGQDDEVRILMANGADVNAGDPFGFTPLHLAAMFGHLEIVEVLLKNGADVNAHDEYGFTPLHLAAVVGHLEIVEVLLKNGADVNACDNQGGTPLHLAAHTGHLEIVEVLLKHGADVNAQDKFGKTAFDISIDNGNEDLAEILQSSS
Q: What does the source list for B2?
A: EC50 [2]: 1.2 nM; EC50 [3]: 1.2 nM; EC50 of Stx2a neutralization, Vero E6 toxin challenge assay [4]: 1900 nM; Kd [5]: 409 nM; EC50 (read off the curve) [6]: ~1 nM

B3: DARPin Off-rate #27 (designed binder)
chain: MGSSHHHHHHSSGLVPRGSHMEQKLISEEDLGSDLGKKLLEAARAGQDDEVRFLMANGADVNAGDPFGFTPLHLAAMFGHLEIVEVLLKNGADENAHEEYGFTPLHLAAVVGHLEIVEVLLKNGADVNACDNQGGTPLHLAAHTGHLEIVEVLLKHGADVNAQDKFGKTAFDISIDNGNEDLAEILQSSS
Q: Does B3 bind [7]?
A: binds

B4: DARPin RI (designed binder)
chain: MGSSHHHHHHSSGLVPRGSHMEQKLISEEDLGSDLGKKLLEAARAGQDDEVRILMANGADVNAGDPFGFTPLHLAAMFGHLEIVEVLLKNGADVNAHDEYGFTPLHLAAVVGHLEIVEVLLKNGADVNACDNQGGTPLHLAARIGHLEIVEVLLKHGADVNAQDKFGKTAFDISIDNGNEDLAEILQSSS
Q: With B4 as the binder, how does the “fold improved toxin-binding ability in ELISA (against parent 10B)” value [8] read?
A: ~8 fold

Q: What about the “fold improved toxin neutralization activity in the Vero E6 toxin challenge assay” value [4] of the same binder?
A: ~4 fold

Q: What about the “EC50 (read off the curve)” value [6] of the same binder?
A: ~1 nM

B5: DARPin Off-rate #28 (designed binder)
chain: MGSSHHHHHHSSGLVPRGSHMEQKLISEEDLGSDLGKKLLEAARAGQDDEVRILMANGADVNAGDPFGFTPLHLAAMYGHLEIVEVLLKNGADVNAHEEYGFTPLHLAAVVGHLEIVEVLLKNGADVNACDNQGGTPLHLAARIGHLEIVEVLLKHGADVNAQDKFGKTAFDISIDNGNEDLAEILQSSS
Q: Does B5 bind [7]?
A: binds

B6: DARPin 10B (designed binder)
chain: MGSSHHHHHHSSGLVPRGSHMEQKLISEEDLGSDLGKKLLEAARAGQDDEVRILMANGADVNAGDPFGFTPLHLAAMFGHLEIVEVLLKNGADVNAHDEYGFTPLHLAAVVGHLEIVEVLLKNGADVNACDNQGGTPLHLAAVDGHLEIVEVLLKHGADVNAQDKFGKTAFDISIDNGNEDLAEILQSSS
Q: For B6, which “EC50 (read off the curve)” value [9] is on record?
A: ~4 nM

Q: What about the EC50 [2] of the same binder?
A: 3.7 nM

Q: And the EC50 [3]?
A: 3.8 nM

Q: What about the Kd [10] of the same binder?
A: 3540 nM

Q: What about the “EC50 of Stx2a neutralization, Vero E6 toxin challenge assay” value [4] of the same binder?
A: 2700 nM

Q: What about the “EC50 of Stx2a neutralization, Vero E6 toxin challenge assay (cell viability)” value [4] of the same binder?
A: > 1000 nM

Q: And the Kd [5]?
A: 3450 nM

Q: And the Kd [11]?
A: 3540 nM

B7: DARPin Off-rate #26 (designed binder)
chain: MGSSHHHHHHSSGLVPRGSHMEQKLISEEDLGSDLGKKLLEAARAGQDDEVRILMANGADVNAGDPFGFTPLHLAAMFGHLEIVEVLLKNGADVNAHEEYGFTPLHLAAVVGHLEIVEVLLKNGADVNACDNQGGTPLHLASHTGHLEIVEVLLKHGADVNAQDKFGKTAFDISIDTGNEDLAEILQSSS
Q: Does B7 bind [7]?
A: binds

B8: DARPin #3 (designed binder)
chain: MGSSHHHHHHSSGLVPRGSHMEQKLISEEDLGSDLGKKLLEAARAGQDDEVRILMANGADVNACDSNGRTPLHLAAVRGHLEIVEVLLKNGADVNAWDVIGKTPLHLAADGGHLEIVEVLLKNGADVNAWDLIGRTPLHLAALDGHLEIVEVLLEHGADVNAYDRPGHTPLHLAARRGHLEIVEVLLKYGADVNAQDKFGKTAFDISIDNGNEDLAEILQSSS
Q: Which results are given for B8?
A: EC50 of Stx2a neutralization, Vero E6 toxin challenge assay (cell viability) [4]: > 1000 nM; Kd [5]: 8.8 nM; koff [12]: 0.0438 s⁻¹; Kd [11]: 8.83 nM
